Data taken from patent US20040253224.

Test system: Bovine submaxillary gland mucin (Sigma)

Q: What does the source list for “mouse AMCase (acidic mammalian chitinase)”?
A: degradation of mucin on 7.5% SDS-PAGE with silver staining after overnight incubation at 37 C, pH 5.0 (125 ug mucin, 500 ng mouse AMCase): the mucin was degraded by treatment with the AMCase; flow rate of the mucin solution, measured in a vertically positioned glass pipette, after incubation with AMCase: increased with almost a factor of 2
